These are literature values, as cited in paper PMC2904412.

The target of the series is thrombomodulin (Homo sapiens) (UniProt P07204).

For orientation: Kd means the equilibrium constant for the complex coming apart. Take thrombin (from UniProt P00734): the Kd was less than 1 nM.
